# Reference: the supplement of paper PMC6757056
# ± gives the standard deviation of the averaged measurements.
# B1: library; a variant is named by its letters at N, in order (parent)
# chain: GCUGUCACCGGUGCUUGGUACGUUAUAUUCAGCCGGUCUGAUGAGUCUNNNNNNAGACGAAACAGC
# What was measured:
# (6R,S)-folinic acid [1] = variants of: B1; test: normalized RNA/DNA level without ligand (relative to sTRSVctl = 100) (log10 (% of sTRSVctl)); HEK293T overexpressing SLC46A1; higher = less ribozyme self-cleavage, higher mRNA level; details: without (6R,S)-folinic acid; ligand present: no
# Procedure, shortened: (§1)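 Ribozyme switch library plasmids linked to reporters were introduced into HEK293T cells at 4 µg per 6-well well, with ligand, if any, added 1 h before. Total RNA was extracted with EDTA 72 h later, reverse-transcribed, amplified, barcoded and sequenced. RNA level was computed from RNA over DNA reads relative to a spiked-in non-cleaving sequence or the top sequences, then scaled and log-transformed. The top set was 25 sequences, values were ×100 and log10, and the cutoff was ≥100 DNA reads.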
# (6R,S)-folinic acid [2] = variants of: B1; test: normalized RNA/DNA level with ligand (relative to sTRSVctl = 100) (log10 (% of sTRSVctl)); HEK293T overexpressing SLC46A1; ligand concentration (+) RNA-Seq: 6 mM; higher = less ribozyme self-cleavage, higher mRNA level; details: with (6R,S)-folinic acid; ligand present: yes
# Procedure, shortened: as §1
Variant,"normalized RNA/DNA level without ligand (log10) ((6R,S)-folinic acid [1])","normalized RNA/DNA level with ligand (log10) ((6R,S)-folinic acid [2])"
CUAUUA,2.017 ± 0.013,2.009 ± 0.0054
CUAUUC,2.06 ± 0.024,2.008 ± 0.0052
AUAGCU,2 ± 0.016,2 ± 0.046
CUAAAC,1.983 ± 0.006,1.992 ± 0.018
CUAAAU,1.977 ± 0.0084,1.99 ± 0.034
GUCAAA,1.994 ± 0.009,1.99 ± 0.037
GUCAAC,2.0058 ± 0.0019,2.03 ± 0.03
GUCAAU,1.975 ± 0.018,2.02 ± 0.045
UUACGC,1.995 ± 0.011,1.995 ± 0.018
UUACGG,2.018 ± 0.0069,2.049 ± 0.016
UUACGA,2.013 ± 0.011,2.04 ± 0.035
CUAGCA,2.038 ± 0.0039,2.041 ± 0.0037
CUAGCG,2.0229 ± 0.0015,2.05 ± 0.042
CUAGCU,2.033 ± 0.0023,1.993 ± 0.014
CUAGCC,2.024 ± 0.015,1.98 ± 0.036
GUCAUA,1.994 ± 0.0035,1.99 ± 0.055
GUCAUU,2.068 ± 0.0023,2.007 ± 0.0048
GUCAUC,2.0573 ± 0.0006,2.01 ± 0.0035
UUAUGG,1.798 ± 0.008,1.97 ± 0.0093
UUAUGC,1.989 ± 0.0091,2.02 ± 0.039
UGUUUA,1.978 ± 0.0041,2.055 ± 0.0056
UGUUUC,2.063 ± 0.0072,2.04 ± 0.027
GUAUCU,2.034 ± 0.0026,2.038 ± 0.011

Variant,"normalized RNA/DNA level without ligand (log10) ((6R,S)-folinic acid [1])","normalized RNA/DNA level with ligand (log10) ((6R,S)-folinic acid [2])"
GUAUCG,2.028 ± 0.017,2.05 ± 0.041
GUAUCC,2.015 ± 0.013,2 ± 0.035
GGUUGU,2.023 ± 0.0028,2.04 ± 0.051
GUCACU,2.02 ± 0.025,2.03 ± 0.042
GUCACA,1.991 ± 0.0044,1.996 ± 0.0028
CUAGUG,2 ± 0.028,2.03 ± 0.014
CUAGUC,2.081 ± 0.0096,2.025 ± 0.015
CUAGUU,2.064 ± 0.0034,2.03 ± 0.041
CUAGUA,1.996 ± 0.015,2 ± 0.034
GUAGGU,1.998 ± 0.013,2.04 ± 0.03
GUAGGA,1.946 ± 0.0025,2 ± 0.047
GUAGGC,1.881 ± 0.011,2.0344 ± 0.00079
UUCACG,1.954 ± 0.013,2.01 ± 0.028
UUCACC,2.06 ± 0.036,2.02 ± 0.068
UUCACA,1.966 ± 0.017,1.971 ± 0.015
UUCAAC,2.026 ± 0.015,2.02 ± 0.046
CUAUGC,2.036 ± 0.0043,2.036 ± 0.0099
CUAUGA,2.02 ± 0.013,2.02 ± 0.027
CUAUGG,1.97 ± 0.03,2.039 ± 0.014
AUCAAG,1.93 ± 0.021,2 ± 0.026
AUCAAC,2.0326 ± 0.00048,2.01 ± 0.033
AUCAAA,2.002 ± 0.0041,2 ± 0.04
AUCAAU,1.989 ± 0.0025,2 ± 0.053

Variant,"normalized RNA/DNA level without ligand (log10) ((6R,S)-folinic acid [1])","normalized RNA/DNA level with ligand (log10) ((6R,S)-folinic acid [2])"
AUACCG,2.013 ± 0.013,2.04 ± 0.042
AUACCC,2.023 ± 0.003,2.01 ± 0.023
AUACCU,2.0169 ± 0.00086,2.025 ± 0.011
CUAUAA,1.984 ± 0.0043,1.978 ± 0.0033
CUAUAC,2.001 ± 0.0069,2.01 ± 0.014
CUAUAU,2 ± 0.033,2.03 ± 0.063
GUACGU,1.986 ± 0.006,2.03 ± 0.049
GUACGC,2.01 ± 0.029,2.03 ± 0.026
CUAGAA,1.992 ± 0.016,2.018 ± 0.016
CUAGAG,1.92 ± 0.035,2.02 ± 0.042
CUAGAC,1.98 ± 0.017,1.986 ± 0.015
AUACAC,2.01 ± 0.026,2.04 ± 0.039
CUACAG,1.977 ± 0.011,2.03 ± 0.029
CUACAA,1.98 ± 0.0052,1.99 ± 0.024
CUACAC,2.05 ± 0.011,2.023 ± 0.016
CUACAU,1.974 ± 0.0066,2.02 ± 0.039
CUAAGA,2.017 ± 0.0036,2 ± 0.04
CUAAGC,2.02 ± 0.026,2.024 ± 0.018
CUAAGG,1.96 ± 0.0065,2.002 ± 0.014
AUAGGA,1.91 ± 0.022,1.99 ± 0.053
CUAAUU,2.011 ± 0.01,2.02 ± 0.061
CUAAUG,2.026 ± 0.013,2.02 ± 0.038
CUAAUC,2.072 ± 0.014,2.007 ± 0.013

Variant,"normalized RNA/DNA level without ligand (log10) ((6R,S)-folinic acid [1])","normalized RNA/DNA level with ligand (log10) ((6R,S)-folinic acid [2])"
UUAAGU,1.996 ± 0.014,2.024 ± 0.0034
UUAAGC,2.022 ± 0.0089,2.027 ± 0.016
AUAUGC,1.9727 ± 0.0008,1.99 ± 0.046
UUACUC,2.048 ± 0.0074,2.03 ± 0.027
UUACUA,1.978 ± 0.0023,2.01 ± 0.034
UUACUU,1.991 ± 0.0083,1.994 ± 0.019
CUACCG,2.06 ± 0.029,2.05 ± 0.025
CUACCC,2.045 ± 0.011,2 ± 0.047
CUACCU,2.044 ± 0.02,2.01 ± 0.026
CUACCA,2.0575 ± 0.0015,2.0336 ± 0.0013
AUAUCA,2.0081 ± 0.00069,2.04 ± 0.036
AUAUCU,2.0373 ± 0.00034,2.05 ± 0.04
AUAUCG,1.962 ± 0.0099,2.03 ± 0.035
CGUUGU,2.004 ± 0.0073,2 ± 0.047
GUAAAG,1.94 ± 0.015,2 ± 0.027
CUCAUA,1.99 ± 0.021,1.96 ± 0.055
CUCAUU,2.08 ± 0.03,2.05 ± 0.026
CUCAUG,2.003 ± 0.019,1.98 ± 0.023
UUAGUC,2.031 ± 0.0018,2.024 ± 0.0089
UUAGUA,1.9501 ± 0.0015,1.98 ± 0.026
UUAGUG,1.759 ± 0.012,1.962 ± 0.012
UUAGUU,1.972 ± 0.0056,1.97 ± 0.052
CUAGGG,1.882 ± 0.017,2.02 ± 0.028

Variant,"normalized RNA/DNA level without ligand (log10) ((6R,S)-folinic acid [1])","normalized RNA/DNA level with ligand (log10) ((6R,S)-folinic acid [2])"
CUAGGA,2.016 ± 0.0053,2.01 ± 0.047
UUAAAU,1.974 ± 0.0099,2.01 ± 0.024
CUACUC,2.05 ± 0.021,2.03 ± 0.039
CUACUU,2.03 ± 0.022,2.02 ± 0.039
CUACUG,2.0146 ± 0.00058,2.04 ± 0.024
CUACUA,2.02 ± 0.021,2.05 ± 0.04
UUAGGU,1.942 ± 0.0098,1.971 ± 0.016
CUACGC,2.025 ± 0.013,2.028 ± 0.0021
CUACGA,2.045 ± 0.012,2.05 ± 0.028
CUACGU,2 ± 0.01,1.99 ± 0.035
CUACGG,2.102 ± 0.0025,2.092 ± 0.0045
GUAAUU,2.013 ± 0.0027,1.99 ± 0.024
GUAAGU,1.939 ± 0.0089,2.02 ± 0.06
GUAAGA,2.005 ± 0.0094,1.99 ± 0.02
AGUUUU,2.01 ± 0.027,1.98 ± 0.02
AGUUUA,1.9996 ± 0.00042,2.03 ± 0.037
AGUUUG,1.958 ± 0.0094,2.023 ± 0.017
AGUUUC,2.02 ± 0.024,2 ± 0.025
UUAAUC,2.0392 ± 0.0017,2.03 ± 0.034
UUAAUU,2.011 ± 0.0048,2.01 ± 0.042
UUCAGU,1.9849 ± 0.0019,2.01 ± 0.043
UUCAGA,1.975 ± 0.011,2 ± 0.021
UUCAGC,2.063 ± 0.016,2.048 ± 0.014
